The values that follow come from the RNAGym collection of RNA variant scans (doi:10.1073/pnas.2313332121).

B1: TPR t1 (parent)
chain: GACCAAUCUGCCCUCAGAGCUCGAGAACAUCUUCGGAUGCAGAGGAGGCAGGCUUCGGUGGCGCGAUAGCGCCAACGUCCUCAACCUCCAAUGCAUCCCACCACAUGAUGAUGCCUGAAGAGCCUUGGUUUUUUG

Variants of B1 are the subject of this data set. Briefly: polymerase ribozyme fitness, log enrichment relative to wild type (log ratio); higher = more active; in vitro selection for triplet polymerase activity. In short, it runs like this:
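Mutant libraries of both subunits of a heterodimeric triplet polymerase ribozyme were PCR-built, transcribed, and selected once in triplicate, with frozen incubation at −7 °C and capture of gel-excised extended constructs on streptavidin beads before RT-PCR. Illumina sequencing of input and output libraries was filtered to genotypes with ≥10 input reads and ≥1 read per output. Fitness is the logarithm of genotype enrichment over wild-type enrichment, using inverse-variance-weighted replicate averages. The logarithm is base 2.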
In the case of A18U C56U, the “polymerase ribozyme fitness (log ratio)” value is -1.72.
In the case of A18U C49G C88A C101A C123U U126A, the “polymerase ribozyme fitness (log ratio)” value is -4.99.
The same measure for A18G U21C G110A: -2.38.
The same measure for A18U C73U U96G C104U: -2.93.
For the variant A18U U38G C56U C114A G135U, the “polymerase ribozyme fitness (log ratio)” value is -2.6.
The same measure for A18U G42A C53G G71C C85U C89A: -4.28.
The same measure for A18U A74U U78C A111C: -4.61; for A18U C114A U125A U133G: -1.87.
A18U A41U C56U C72A U133A: the “polymerase ribozyme fitness (log ratio)” value was -3.75.
Consider A18U G47U, for which the “polymerase ribozyme fitness (log ratio)” value is -3.96.
Consider A18U A43G G60A U92C U112C, for which the “polymerase ribozyme fitness (log ratio)” value was -0.561.
For A18G G19A A43C C56U G110A, the “polymerase ribozyme fitness (log ratio)” value was -2.58.
Regarding A18U G69U C115G, the “polymerase ribozyme fitness (log ratio)” value is -0.333.
For the variant A18U A26G C40G A43U C97A U112A, the “polymerase ribozyme fitness (log ratio)” value was -6.73.
With A18U C70U A84G, the “polymerase ribozyme fitness (log ratio)” value was -6.3.
Take A18G G93C: the “polymerase ribozyme fitness (log ratio)” value was -3.75.
For the variant A18U U32A C56A A105C G120C G122A C124A, the “polymerase ribozyme fitness (log ratio)” value is -4.84.
A18U C123U: the “polymerase ribozyme fitness (log ratio)” value was -1.12.
On to A18U U21G C79G G93C G107C A108U C123G C124U, for which the “polymerase ribozyme fitness (log ratio)” value is -7.63.
To A18U A41C C72G belongs -2.61; to A18U C115U, -2.09.
The same measure for A18G G63C C85U G110U: -3.81; for A18G G44U C86A C104U G120C: -3.98; for A18U C88U A111U G127A: -5.73.
The same measure for A18U C49U C102U G117A: -7.34.
As to A18U G63C C64U C97G G117A, the “polymerase ribozyme fitness (log ratio)” value is -6.33.
As for A18U G35U U54G C88A U112A, the “polymerase ribozyme fitness (log ratio)” value is -7.02.
For A18G G19U A46G U59A C79A, the “polymerase ribozyme fitness (log ratio)” value is -4.25.
With A18G C102G G110U, the “polymerase ribozyme fitness (log ratio)” value is -5.75.
A18G G48U C72A U130G: the “polymerase ribozyme fitness (log ratio)” value is -6.5.
The same measure for A18U G57A U106A: -5.57.
For A18U G57C G77U A105U U112C, the “polymerase ribozyme fitness (log ratio)” value is -4.24.
As for A18U A66G U78C A118G U132A, the “polymerase ribozyme fitness (log ratio)” value is -3.83.
As to A18G G69U C102U C115A, the “polymerase ribozyme fitness (log ratio)” value is -5.41.
Consider A18U G122U, for which the “polymerase ribozyme fitness (log ratio)” value was -2.38.
The same measure for A18U A37U A41G C64U: -2.4; for A18U A121C: -0.0692; for A18U C88A: -3.06.
Consider A18G U112A, for which the “polymerase ribozyme fitness (log ratio)” value was -0.0704.
Take A18U G48U G61U C104U: the “polymerase ribozyme fitness (log ratio)” value is -2.08.
Turning to A18G C101U C114U U129A, the “polymerase ribozyme fitness (log ratio)” value was -5.75.
For the variant A18U G44C C73A A90C, the “polymerase ribozyme fitness (log ratio)” value is -1.95.
As to A18U G47U C101A U109A G113A U116A, the “polymerase ribozyme fitness (log ratio)” value is -6.66.
On to A18U C64U, for which the “polymerase ribozyme fitness (log ratio)” value was -2.
Regarding A18U G71A G93U U131G, the “polymerase ribozyme fitness (log ratio)” value was -5.74.
A18U G52C G61C U87C G120C: the “polymerase ribozyme fitness (log ratio)” value was -4.57.
As for A18U G19A G39U C115G, the “polymerase ribozyme fitness (log ratio)” value is -3.
Consider A18U G71A G120A, for which the “polymerase ribozyme fitness (log ratio)” value is -3.53.
With A18U C56U U87G U106C A121C, the “polymerase ribozyme fitness (log ratio)” value was -0.72.
Consider A18U C79G G110A, for which the “polymerase ribozyme fitness (log ratio)” value was -6.
As for A18U A95G, the “polymerase ribozyme fitness (log ratio)” value is -2.21.
Regarding A18U G35U G71A A108G C115U, the “polymerase ribozyme fitness (log ratio)” value was -6.98.
With A18U G44A A46U G48C G61U C72U C98U, the “polymerase ribozyme fitness (log ratio)” value was -5.97.
On to A18U G120U, for which the “polymerase ribozyme fitness (log ratio)” value is -1.46.
Consider A18U A26G G71U G120A G127U, for which the “polymerase ribozyme fitness (log ratio)” value was -5.55.
With A18U C53A, the “polymerase ribozyme fitness (log ratio)” value was -2.38.
In the case of A18G G122A, the “polymerase ribozyme fitness (log ratio)” value was -3.35.
On to A18U A90C G120A, for which the “polymerase ribozyme fitness (log ratio)” value is -0.842.
Take A18U C70U A121U: the “polymerase ribozyme fitness (log ratio)” value was -1.34.
Consider A18G U54A C62U C88G A111C G113C U125A, for which the “polymerase ribozyme fitness (log ratio)” value is -3.53.
As for A18U G42C A43C G93C, the “polymerase ribozyme fitness (log ratio)” value is -5.75.
On to A18U C85A, for which the “polymerase ribozyme fitness (log ratio)” value is -4.19.
Take A18U C28U G36U C70U C79G G120A C124A: the “polymerase ribozyme fitness (log ratio)” value was -6.76.
Consider A18U C56U C123G U129A, for which the “polymerase ribozyme fitness (log ratio)” value is -1.91.
Take A18G C72U U81A A91U U96C G120A G128A: the “polymerase ribozyme fitness (log ratio)” value was -6.28.
For A18U C62U A84C G120U G135U, the “polymerase ribozyme fitness (log ratio)” value was -5.35.
Turning to A18U A66U, the “polymerase ribozyme fitness (log ratio)” value was -3.87.
On to A18U C40U C72U U78G C123G G135C, for which the “polymerase ribozyme fitness (log ratio)” value was -1.48.
As for A18G C73A U87G, the “polymerase ribozyme fitness (log ratio)” value is -3.89.
In the case of A18G C82A, the “polymerase ribozyme fitness (log ratio)” value is -4.16.
To A18U C85G G113C belongs -5.2; to A18U C22G A66U U78C C82U, -6.51.
To A18G U106A U109C belongs -3.8; to A18U G44A C94A C114A, -3.45.
For A18U G52U U133A, the “polymerase ribozyme fitness (log ratio)” value is -3.89.
Consider A18G C82A C94U, for which the “polymerase ribozyme fitness (log ratio)” value is -4.18.
To A18U C40A A41U belongs -3.61; to A18G G63C, -2.89; to A18U C62G C82A C114A U131A G135A, -4.32.
As to A18G G113U, the “polymerase ribozyme fitness (log ratio)” value was -4.5.
For A18G G113A, the “polymerase ribozyme fitness (log ratio)” value was -1.78.
With A18U G60A A90C, the “polymerase ribozyme fitness (log ratio)” value was -1.79.
For the variant A18U C64U C72G A121G, the “polymerase ribozyme fitness (log ratio)” value was -0.335.
